Substrate in this data set: O=P(O)(O)O[C@H]1O[C@H](CO)[C@@H](O)[C@H](O)[C@H]1O
As to the kind of experiment: purified protein, by the assay type. Particulars: other: E. grandis UGP; SEM 0.002.

B1: Eucalyptus grandis UGP (UDP-glucose pyrophosphorylase), SEQ ID NO: 79 (DNA; protein SEQ ID NO: 103) (Eucalyptus grandis) (protein)
chain: VLFTHLPPQKPNRISLLLFFIFHITTFLLLLLLLSVLSTFISIAVSLSDPELFFASPPMAAAATLSAPDAAKLSQLKSAVSGLGQISESEKNGFINLVSRYLSGEAQHVDWSKIQTPTDEIVVPYDSLAPTPQDPAATKSLLDKLVVLKLNGGLGTTMGCTGPKSVIEVRNGLTFLDLIVIQIENLNTKYGCNVPLLLMNSFNTHDDTLKIVEKYANSNIDIHTFNQSQYPRLVVEDFMPLPCKGQTGKDGWYPPGHGDVFASLMNSGKLDALLSQGKEYVFAANSDNLGAIVDLKILNHLMTNKNEYCMEVTPKTLADVKGGTLISYEGKVQLLEIAQVPDEHINEFKSIEKFKIFNTNNLWVNLKAIKRLVEAQALKMEIIPNPKEVDGIKVLQLETAAGAAIKFFDNAIGINVPRSRFLPVKATSDLLLVQSDLYTLVDGFVERNKARTNPSNPSIELGPEFKKVGNFLSRFKSIPSIIELDSLKVSGDVWFGTGITLKGKVTIAAKPGVKLEIPDGVVLENKEIHGPEDL
For B1, the Michaelis-Menten constant (Km) is 126 µM.

These data come from US20030229922A1, “Materials and methods for the modification of plant cell wall polysaccharides” (GENESIS RESEARCH AND DEVELOPMENT CORPORATION LTD., priority 1998, published 2003).
